For the data set the following is noted: Aspergillus oryzae (strain ATCC 42149 / RIB 40), Thermal, DSC, 3/3'-dimethylglutaric acid (DMG) 100 mM, NaCl 2 M, whole UniProt chain shown; for heat capacity change of unfolding / unfolding free energy: 25 °C.

B1: Guanyl-specific ribonuclease T1 wild type, P00651 (protein)
chain: MMYSKLLTLTTLLLPTALALPSLVERACDYTCGSNCYSSSDVSTAQAAGYQLHEDGETVGSNSYPHKYNNYEGFDFSVSSPYYEWPILSSGDVYSGGSPGADRVVFNENNQLAGVITHTGASGNNFVECT
The term Tm denotes the temperature at which the thermal transition is half complete. With B1, the “heat capacity change of unfolding” value was found to be 1.59 kcal/mol/K (pH 4); 1.59 kcal/mol/K (pH 5); 1.59 kcal/mol/K (pH 6); 1.59 kcal/mol/K (pH 7); 1.59 kcal/mol/K (pH 8). In addition, the unfolding free energy reads like this: (pH 4) 7.43 kcal/mol; (pH 5) 7.39 kcal/mol; (pH 6) 6.91 kcal/mol; (pH 7) 4.54 kcal/mol; (pH 8) 3.63 kcal/mol. Moreover, the Tm worked out at 72.4 °C (pH 4); 73.2 °C (pH 5); 70.4 °C (pH 6); 66.8 °C (pH 7); 65.4 °C (pH 8). Further, the “unfolding enthalpy (calorimetric)” value reads like this: (pH 4) 93.7 kcal/mol; (pH 5) 93.2 kcal/mol; (pH 6) 90.2 kcal/mol; (pH 7) 71.7 kcal/mol; (pH 8) 63.8 kcal/mol.

Values taken from FireProtDB (doi:10.1111/j.1432-1033.1995.tb20418.x).
